The nature of this data set: soluble on expression in E. coli; label from the status in PepcDB or PDB records.
As for “MSLTDINLKGGKLSIEQLNTIFETIPVEFDFIDENDIIRWSSANRHRLFKRTDADLGKHVLEVHPGHSQNHVKQVLHDMHSGDRDSISIMIKHHGQPVNIAFYALRDDQNKYLGCVEVTQDVSKQQTKGSFWRNIMQVLHKKEGHHHHHH”, the “soluble on expression in E. coli” value is “soluble”.
In the case of “MIPATLHQLKVFETTARHGSFTKAAEELSITQPTVSGQVKQLTQTIGMPLFEHIGRKLYLTEAGEELLATCQEIFERLDNFEMKLAALQGAKRGQLRLGVITTTKYFVPRILGEFCQDYPDIDVSLQVINHQQLHDRMADNLDDLYILSNLPDDLDVHAQAFLDNPLVVVARADHPLAHQKNLPLSVLDGADFVTREMGSGTRLAVEKLLAEHDVSVQVRLELGSNEAIKQAIAGGLGISVLSRHTLITEPPHGELTVLDVEHFPIQRHWYVAYLAGKQLSVIAQAFLEFMVRSSQKTLENSGRRSLALQP”, the “soluble on expression in E. coli” value is reported as “not soluble”.
With “MGSDKIHHHHHHMSDNDLQRRILDAVDAGFDAQLATTRDFVAIPSTRGAEGPCQDMIGDLLRQRGYEVDDWHIDLDDLKDLRGYGPIEHDFSKARTVVGTYRPSTNAGRSLILQGHCDVVPAGPLEMWDTPPFSPVIKQGRMYGRGACDMKSGTIGALYALDAIKAAGLRPTGRIHFQSVIEEESTGVGALSTLQRGYRADACFIPEPTGGKMVRSQVGVIWFRLKVRGYPVHVATAGTGSNAITAAYHLIDALGKLEEEWNRRAASDPHFKTLAHPINFNPGIIKGGDWASSVPAWCDVDCRIAILPGWSVADHQAEILACVSAAARDHRFLSNNPPQVEWSGFLSEGYELKNAAEPEAAFGKAYQAVYGSEVEDLVFTALTDTRFYGLNYNIPSLCFGASGEAMHGFNEYIDLESLRQSTKATALFIAEWCGVEPA”, the “soluble on expression in E. coli” value is recorded as “not soluble”.
Regarding “MGSDKIHHHHHHMEITIFGKGNMGQAIGHNFEIAGHEVTYYGSKDQATTLGEIVIMAVPYPALAALAKQYATQLKGKIVVDITNPLNFDTWDDLVVPADSSAAQELQQQLPDSQVLKAFNTTFAATLQSGQVNGKEPTTVLVAGNDDSAKQRFTRALADSPLEVKDAGKLKRARELEAMGFMQMTLAASEQIGWTGGFAVVK”, the “soluble on expression in E. coli” value is given as “not soluble”.
In the case of “GSFTMDDISPSELKTILHSKRANLYYLQHCRVLVNGGRVEYVTDEGRHSHYWNIPIANTTSLLLGTGTSITQAAMRELARAGVLVGFCGGGGTPLFSANEVDVEVSWLTPQSEYRPTEYLQRWVGFWFDEEKRLVAARHFQRARLERIRHSWLEDRVLRDAGFAVDATALAVAVEDSARALEQAPNHEHLLTEEARLSKRLFKLAAQATRYGEFVRAKRGSGGDPANRFLDHGNYLAYGLAATATWVLGIPHGLAVLHGKTRRGGLVFDVADLIKDSLILPQAFLSAMRGDEEQDFRQACLDNLSRAQALDFMIDTLKDVAQRSTVSA” it was “soluble”.
As for “MGSDKIHHHHHHMSRFAACFEDLPDPRGRNARHPLTSILFIAVAAIVCGAESCTDMADFGVAKKKWLKTIVPLPYGIPSHDTFSTVFRHLDPDAFDAAFRRLTASFAQGLEGVVAIDGKAVRGAYRRAAKATPLHFVNVWAAGPGLVIGQKLAPGRNEVQGALDALALLALEGSIVTADALHCRPDTARAILAAGGDYALALKANQPGLLAQALARIEDADHVESIQIAAETAHDRTETRRASVVAVDDINFPGLQAIGCVETTSRHTNGHLTSHVRYFLLSTTMSPSALIEVVRTHWQIENKLHWVLDVHFREDAARNRKDNGPQNIAFLRKIALNLLRSHPDKASIRRKIKKAGWDDQFLTSLIAHMR”, the entry is “not soluble”; as for “MGSDKIHHHHHHMDRFLSIEAFVRVAEASSFAEAARQLGVTSSVVTNRIQQLEKFVNAPLFHRSTRHVRLSEVGETFYRECAEVVGRVNELTDQMRELRATPTGRLRIQMLPGFALDHFGVPLAEFNRRYPGIQLDIIVNDRVVDPVEEGFDIAFQIFPPISESLIERRLFVVRRLFCASPAYLDAHGAPQHPRELLQHTTALYSGYPSRNRWTMTRGDEVVEMELPGMIRSNSVHLLREYALTGGGVVCLPTLVASEALVAGRLVPILTDFEIAPLSFAAVYPATQRQALKVKALVEFLAEYIGDESPWDRPLLERGWVR”, “not soluble”; as for “MTYETVERSKKSQVNLNNKEPFSVLLLGIDTGDDGRVEQGRSDTTIVATVNPRDKQTTLVSLARDTYVDIPGQGKQDKLNHAYAFGGASLAMDTVENYLNIPINHYVSINMAGLKELVNAVGGIEVNNNLTFSQDGYDFTIGKISLDGEQALSYSRMRYEDPNGDYGRQERQRKVIEGIVQKVLSLNSVSNYQEILTAVSDNMKTDLSFDDMKKIALDYRSAFGKVKQDQLQGTGFMQDGVSYQRVDEQELTRVQQELKNQLNTKLEHHHHHH”, “soluble”.
As for “MAALRNGLEGSSEETSFHDESLQDDREEIENNSYHMHPAGIILTKVGYYTIPSMDDLAKITNEKGECIVSDFTIGRKGYGSIYFEGDVNLTNLNLDDIVHIRRKEVVVYLDDNQKPPVGEGLNRKAEVTLDGVWPTDKTSRCLIKSPDRLADINYEGRLEAVSRKQGAQFKEYRPETGSWVFKVSHF”, the entry is “soluble”; as for “MQMKRTAFFISDGTGITAETLGQSLLAQFENISFVKLTRPYIDTEEKARAMVQQINNAAESDGARPIIFDTIVNRDIRAVLAQSNGFMIDIFATFLSPLEQELSADSSYSVGKSHSIGHNSNYMDRIEAVNFALDNDDGARTHYYDKADLILVGVSRCGKTPTCLYMALQYGIRAANYPLTEEDMERLQLPNALKQYKHKLFGLTIDPDRLTAIRNERKPNSRYASFAQCEFEVREVESLFRRENIAYINSTHFSVEEISAKILVEKGVERRFKLEHHHHHH”, “not soluble”.
For the sequence “MARRISSQGKVTISVDEYSSNPTQAFTHYNINQSRFQPPHVHMVEPLPYDAPKSVGHTRFVCVSDTHSRTDGIQMPFGDVLLHTGDFTELGLPSEVKKFNDWLGGLPYEYKVVIAGNHELTFDKDFMAELIKQDYYRFPSVSKLRSEDFDDVQSLLTNCVYLQDSEVTIKGFRIYGAPWTPWFNGWGFNLPRGQSLLDKWNQIPEDVDILMTHGPPLGFRDWVPKELQRVGCVELLNTVQKRVRPKLHAYGGIHEGYGIMTDGYTTFINSSTCTVSFQPTNPPIIFDLPNPGNS”, the “soluble on expression in E. coli” value is given as “not soluble”.
Turning to “MPISEPTWAELPFLFKSAVVELLPYKNRCCLRKCSKSDQFLVDSTPNHLHDVAIHTCENYTVFTYSDSPDTVFTLKYFKNIGENDLKIEYSESPVLFVPGKNQKFIFKTSIHVENLASEADDVDFALDDFKLLLNRLNCKKSIINMIPNQYNPIAHPDRTIEFRQRLLDLMTSSFPKKSIKSKSLVIHWHQETQEIAEILQVFHTKTLKNLEFHDRNATWHMAPIIGTEQWKGARSVLLEHLSDVKIEELKDFNEIQMHVRDSGEQELWTVIQNFIRKNLHGSSFHFTYRQAEPNVDRILATFNVPPRDEPITARTRLRSVLGSRFIHTQRFQMPSTDLILVVMISEKEVMGTVCHVDQVNVEAKVERGLLR”, the “soluble on expression in E. coli” value is on record as “not soluble”.
In the case of “MSLKILDISTEVKEIALKTPFITALRRVDAVEFVRVKVVCDDGSVAYGEAPATRAVTGEDIYSILSDIAFIQEELIGLTPKDAIVSLHLAEMGSSAKAALDMALFYLLPQTKEKQNLTLQTDITISLKDSDEMISDATQAIASGMNILKVKFGGDIKHAIEVTNRLSELDAKLIIDANQAWTQDDTMEYLEATLNVKLELIEQPVKADELHELRCITNYSHVPILADESVFTLEDAKAIIEYACADMINIKLMKCGGVTKAIEILEFARKNDIKCMLGSMLEGPISINAALNLAMEYSDVIAYIDLDSPLLYKEPSNELEFDFNGCEITRKEGHHHHHH” it was “soluble”; in that of “MSLNGQSEYKGKLDYIIVLGAGLRGKHMLGTQYERVKKAAEYVKENPDVKIVVSGGKGNGEDISEAEAMKQYFLNKGFKNDSIIMEDKSKNTFENLRNSKKILEKISNKKEIRVGVVTSSYHITRAKLLGKRVGLKLYAIPAPINKLLLLQSYTREFFAFYKSIIFDRGEGHHHHHH”, “not soluble”.
As for “MAYRERAAWAPEGYMLPLPGACLPSLPENLPGAPRPYRKGVSAGFVFRQGDACVPVVRGMGVVAAFGGEVVKVDPDFQELSEEAWQALLERVREGASPEEMDILRGLEVHVRHPDGRTTVYAHLQAPYPGLKVGSRVHRGDPIGYVGNTGLRGGASRLLFEVWEGEPDRSAFLFQGLEGEELLRRARAFFGLP”, the entry is “soluble”.

The record behind these values is the DeepSol protein solubility set.
